Assay results published in the nanobody polyreactivity screen of Harvey et al. (2022).

test: yeast display, Sf9 membrane polyspecificity reagent, FACS + sequencing; frameworks hold sequencing errors
Method in brief: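 Polyreactivity labels are assigned by the sorting gate from which each nanobody was recovered. The gates were low and high (top ~1%), set on anti-HA fluorescence for expression and streptavidin fluorescence for reagent binding. Before sorting, galactose-induced (36–48 hours) yeast display cells were stained for 1 hour at 4 °C with 10% biotinylated, detergent-solubilized Sf9 membrane reagent.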

Sequence	polyreactivity (PSR sort gate)
QVQLVESGGGLVQAGGSLRLSSAASGSTFRKNAMGWYRQAPGKERELVASISISGGRTNYADSVKGRFTISRDNAKNTVYLQMNSLKPEDTAVYYCAKQVKSYRTRYTFDYWGQGTQVTVSS	high polyreactivity
QVQLVESGGGLVQAGGSLRLSCAASGLIFYLYTMGWYRQAPGQERELVAAISRSGGSTYYADSVKGRFTISRDNAKNTVYVQMNSLKPEDPAVYYCAALRSRSTYNDYNYWGQGTQVTVSS	high polyreactivity
QVQLGESGGGLVQAGGSLRLRCAASGSTFEFYAMGWYRQAPGKERELVASITSSSGPTYYADSVKGRFTISRDNAKNTVYLQMNSLKPEDTAVFYCAKRPIRYYHLLRGNYWGQGTQVTVSS	low polyreactivity
QVQLVESGVGLVQAGGSLRLSCAASGSIFYPYAMGWYRQAPGKERELVAAISSGGRTYDADSVKGRFTISRDNAKNTVYLQMNSLKPEDTAVSYCAARPKAYGRPPGYYWGQGTQVTVSS	high polyreactivity
QVQLVESGGGLVQAGGSLRLTCAASGYIFGVYAMGWYRQAPGKERELVATISSGGSTNYADSVKGRFTISRDNAKNTVYLQMNSLKPEDTAVYYCAAERYWTYYSGFVYGGDNYWGQGTQVTVSS	low polyreactivity
QVQLVESGGGLVQAGGSLRLSCAASGSTFDSYVMGLYRQAPGKERELFAAISSDDSTYYADSVKGRFTISRDNAKNTVYLQMNSLKPEDTAVYYCAATNFRDYYWSWKYYYWGQGTQVTVSS	low polyreactivity
QVQLVESGGGLVQAGGSLRLTCAASGSTFYVYAMGWYRQAPGKERELVAAIDDSGDRTYYADSVKGRFTISRDNAKNTVYLQMNSLKPEDTAVYYCAAEYDSWEYDYWGQGTQVTVSS	low polyreactivity
QVQLVESCGGLVQAGGSLRLSCAASGSTFRFYAMGWYRQAPGKERELVAAINGSGGSTYYADSVKGRFTISRDNAKNTVYLQMNSLKPEDTAVYYCAVLYRYGYDYWGQGTQVTVSW	low polyreactivity
QVQLVESGGGLVQAGGSLRLSCAASGQTFYYYAMGWYRQAPGKERELVAAINSSGGITFYADSVKGRFTISRDNAKNTVYLQMNSLKPEDTAVYYCAAGGRSKRYVYWGQGTQVTVSS	low polyreactivity
QVQLVESGGGLVQAGGSLGLSCAASGYIFGIYAMGWYRQAAGKERELVAAISSDSTYYADSVKGRFTISRDNAKNTVYLQMNSLKPEDTAVYYCAPYWFNQDYEFEYWGQGTQVTVSS	high polyreactivity
QVQLVESARGLVQAGGCLRLSCAASGSTFHQNAMGWSRQAPGKERELVAAITSGGSTYYADSVKGRFTISRDNAKNTGYLQMNSLKPEDTAVYYCNALTHVRSKRWRFRSEHDYWGQGTQVTVSS	high polyreactivity
QVQLVESGGGLVQAGGSLRLSCAASGLTFVYYAMGWYRQAPGKERELVAVISSSGGSTYYADSVKGRFTISRDNAKNTVYLQMNSLKPEDTAVYYCAAPRQVYYQTDNDYWGQGTQVTVSS	high polyreactivity
QVQLLESGGGLVQAGGSLRLSCAASRSTFPGYAMGWYRQAPGKETELVAAITWSGVTTYYADSVKGRFTISRDNAKYTVYLQMNSLKPEDTAVYYCATGTLYSDGAIYGYWGQGTQVTVSS	low polyreactivity
QVQLVESGGGLVQAGGSLRLSCAASGSTFPSYAMGWYRQAPGKERELVAAISRRSSRTYYADSVKGRFTISRDNAKNTVYLQMNSLKPEDTAVYYCNADAGRHSDEYGYDYWGQGTQVTVSS	high polyreactivity
QVQLVESGGGLVQAGGSLRLSCAASGINFGYYTMGWYRQAPGKDREFVAAITANGGRTYYADSVKGRFTLSRDNAKNTVYLKMNSLKPEDTAVYYCNARTYTYRGSFDYWVQGTQVTVSS	high polyreactivity
QDQHVESGGGLVQAGGSLRLSCAASGITSKNYAMGWSRQAPGKERELVAVISGRGGSTYYADSVKGRFTITRDNAKNTVYLQMNCLKPEDTAVYYCAAYGNQRRGAYPYKYDYWGQGTQVTVSS	high polyreactivity
QVQLVESGGGIVQAGGSLLLSCPASGRIFGVYAMGWYRQAPGKERELVAGINGGDSTYYADSVKGRFTISRDNAKNTVYLQMNSLKPEDTAVYYCAAEADESGSNYDYWGQGSQVTVSS	low polyreactivity
QVQLVESGGGLVQAGGSLRLSCAASGRTFYSFNAMVCYRQAPVKERELVAAIVGDGGITYYADSVKGRFTISRDNANNTVFLQMNSLKPEDTAVYYCAAETLHSSDGEDDYWGQGTQVSVSS	low polyreactivity
QVQLVESGGGVVQAGGGLRLSCAASGRTFIGNAMGWYRQAPGKEREFVAYITLSGGSTYYADSVKGRFTISRDNATINVYLQMNSLKPEDRAVYYCADKRFFGYLGYNRGGSRYDYWGQGTQVTVSS	high polyreactivity
QVQLVESGGGLVQAGGSLRLSCAASGSTFARYAMVWYRQAPGKERELVAVIRSGGSTNYADSVKGRFTISRDNAKNTVYLQMNSLKPEDTAGAADQWTIHRWATYGYWGQGTQVTVSS	low polyreactivity
QVQLVESVGGLVQAGGSLRLSCAATGRIFHYNAMGWYRQAPGKERELVAAITSSGGTTYYADSVKGRFTISRDIAKNTVYLQMNTLKPEDTAVYYCNAVTSARVNYRGQGTQVTVSS	high polyreactivity
QVQLVESGGGLVQAGGSLRLSCAASGSTFASNVMGWYRQAPGKERELVAAISRSGGNTYYADSVKGRFTISRDIAKNTVYLQMNSLKPEDTAVYYCAKYPFTRISYDYWGQGTLVTVSS	high polyreactivity

Sequence	polyreactivity (PSR sort gate)
QVHLVESGGGLVQAGGSLRLICAASGYIFQRNAMGWYRQAPGKEREFVAAITRSGGTTYYADSVKGRFTISRDNAKNTVYLQMNSLKPEDTAGYYCNAPRSDRSVYHYHYWGQGTQVTVSS	low polyreactivity
QVQLVDSGGGLVQSGGILRLSCAASGRTFRYYAMGSYRQAPGKERELVAAISSGGSTNYADSVKGRFTISRDNAKNTVYLQMNSLKPEDTAVYYCAALWSGNKFKYWGQGSQVTVSS	low polyreactivity
QVQLVESGGGLVQAGGSLRLSCAASGRTFYRYAMGWYRQPPGKESELVARIRATGGSTYYADSVKGRFTISRDYAKNTVYSQMNSLKPEDTAVYYCAAKIRWGSTWLGAGDYWGQGTQVTVSS	high polyreactivity
QVQLVESGGGLVQAGGSLRLSCAPSGRTFGYNVMGWYRQAPGKERELVAAISYSGGSTYYADSVKGRFTISRDNAKNTVYLQMNSLKPEDTAVYYCAATVLSWYGDYPVYYWGQGTQVTVSS	low polyreactivity
QVQLVESGGGLVQAGGSLRLSCAASGLTFYDYAKGWYRQAPGKELELVADIDFNGGSTSYADSVKGRFTISRDNAKNTVYLQMNSLKPEDTAVYYCAVDFIYWFHSRSSYIYDYWGQGSQVTVSS	low polyreactivity
QVQLVESGGGIVQAGGSLRLSCAASGRIFGYYAMGWYRQARGKERELVAAITWSGGRTYYADSVKGRFTISRDNAKNTVYLQMNSLKPDDTAVYYCAAVVQGPNRKYNYWGQGTQVTVSS	high polyreactivity
QVQLVESGGGLVQAGGSLRLSCAASGRTFGSYAMGWNRQAPGKERELVAAISSSGGRTYYADSVKGRFTISRDNAKNTVYLQMNSLKPEDTGVYYCNADVQWNIWEYDYWGQGTQVTVSS	high polyreactivity
QVQLVESGGGLVQAGGSLRLSCAASGRIFGWYAMGWYRQAPGKERELVAAITSSVGRTYYADSVKGRFTISRDNAKNTVYLQMNSLKPEDTAVYYCAKDLYTYYYFEYDYWGQGTQVTVSS	low polyreactivity
QVQLEDSGGGLVQAGGSLRLSCAASGSTFYTYAMGWYRQAPGKERELVAAITFIDGSTYYADSVKGRFTISRDNAKNTVYLQMNSLKPEDTAVYYCAADDAKFRYRDDYWGQGTQVTVSS	low polyreactivity
QVQLVESGGGLVQAGGSLRLSCAASGSSFSGNFMGWYRQAPGKERELVAAISGRGGSTYYADSVKGRFTISRDNAKNTVYLQMNSLKPEDTAVYYCDAVYLKTYYWGLGTQVTVSS	high polyreactivity
QVQLVESGGGLVQAGGSLRLSCAPSGRTFGYYGMGWYRQEPGKERELVASINFSSGSTFYADSVKGRFSISRDNAKNTVYLQMNSLKPEDTAVYYCAARAKAVRSYAYNYWGQGTQVTVSS	low polyreactivity
QVQLVESGGGLVQAGGSLRLSCAASGGIFNRNAMGWYRQAPGKERELVAAISSGGGSTYYADSVKGRFTISRDNAKNTVYLQMNSLKPEDTAVYYCARDSYHLYIQPFGYWGQGTQVTVSS	low polyreactivity
QVQLVDSGGVLVQAVGSLRLSCAASGLIFYSNAMGWYRQAPGKERELVATISWSGGSTYYADSVKGRFTSSRDNAKNTVYLQMNSLTPEDTAVYYCAAVTHPAWAVEYDYWGQGTQVTVSS	high polyreactivity
QVQLVESGGGLVQAGGSLRLSCAASGSIISSYAMGWYRKAPGKETELLAVITRSGGSTYYADSVKGRFTISRDNAKNTVYLQMKSLKPVDTAVYYCNAQPTRIKLPSYDYWGQGTQVTVST	high polyreactivity
QVQLVESGGGLVQVGGSLRLSCAASGITLTYYALGWYRQAPGKERELVAAIDSGGTTHYADSVKGRFTISRDNAKNTVYLQMNSLKPEDTAVYYCAARPTRGHWWYGYWGQGTQVTVSS	low polyreactivity
QVQLVESGGGLVQAGGSLRLSCAASGSTFTYYAMGWYRQAPGKERELVAAITSGGSTNYADSVKGRFTISRDNAKNTVYLQMNSLKPEDTAVYYCAAEYVRQNYEMDYWGQGTQVTVSS	low polyreactivity
QVQLLESGVCLVQAGGSLRLSCAASGFTFGVYAMGWYRQAPGKERELVAAISTTVGSTYYADSVKGRFTISRDNAKKTVYLQMNSLKPEDTAVYYCAAEYTGYINYYIYEYWGQGTQVTVSS	low polyreactivity
QVQLVESGGGLVQAGGSLRLSCAASGFTIDDNAMGWSRQPPGKERELVAAISWSGGSTYYADSVKGRFTISRDNAKNTVYLQMNSLKPEDTAVYYCAIDVSQPKFDYWGQGTQVTVSS	low polyreactivity
QVQLVESGGGLVQAGGSLRLTCAASGRIFYPYPMGWYRQAPGKERELVAAIDKGGGSTYYADSVKGRFSISRDNAKNTVYLQMNSLKPEDTAVFYCAAGWEYPYDYWGQGTQVTVSS	low polyreactivity
QVQLVESGGGLVQAGGSLRLSCAASGRIFFLNTMGWYRQAPGKERELVAAITRGGSTYYADSVKGRFTISRDNAKNTVYLHMNSLKPEDTAVYYCAADVYGGIGYDYWGQGTQVTVSS	low polyreactivity
QVQLQESGGGLVQAGGSLRLSCAASGSIFVSVTMGWYRQAPGKERELVASIGRGSTTNHADSVKGRFTICRDNAKNIVYLLMNSLKPEDTAVYYCAALESYGKYHGYWGQGTQVTVSS	low polyreactivity
